These are literature values, as cited in publication PMC4246237.

What is called Kd is the constant that tells how readily two partners part at equilibrium.

Read-outs that look alike come from different tables or passages of the source.

Data set [1] has as its target AVP (Human adenovirus 2) (UniProt P03252).
The target is the same in data set [2]. The source holds these as a separate data set.

Chain of UniProt P03252 (P03252 whole entry): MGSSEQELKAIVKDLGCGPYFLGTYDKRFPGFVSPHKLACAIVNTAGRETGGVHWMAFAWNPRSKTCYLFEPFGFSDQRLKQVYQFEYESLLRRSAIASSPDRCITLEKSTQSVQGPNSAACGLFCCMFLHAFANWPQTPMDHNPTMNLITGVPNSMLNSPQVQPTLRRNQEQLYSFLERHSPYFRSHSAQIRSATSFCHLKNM

As for pVIc pVIc (from UniProt P03274), the Kd in data set [1] was 4400 nM; in data set [2], 90 nM.
